Reference: PMC549075

Target: Lamb brain tubulin (lamb)

B1: HIV-1 Tat protein, Oyi strain (natural protein)
chain: MEPVDPRLEPWKHPGSQPKTASNNCYCKRCCLHCQVCFTKKGLGISYGRKKRRQRRRAPQDSKTHQVSLSKQPASQPRGDPTGPKESKKKVERETETDPED
For B1, the ΔOD 350 nm plateau of 15 μM tubulin at 37°C with 8 μM compound was 0.8 ΔOD 350 nm and the ΔOD ratio (plateau with 8 μM compound divided by plateau of tubulin alone) was 2.63.
